Assay [1] concerns the target T1, human TMEM106B (human, UniProt Q9NUM4 2-274).
T1 construct: Full-length, on transiently transfected HEK293 cells, or natively expressed on HeLa, U251 and A549 cells; also called huTMEM106B; huTMEM
The assay is described as follows: FACS, HEK293 transfectants. For orientation: In flow cytometry, cells or beads pass a laser one at a time.

Assay [2] addresses T2, GST (Pierce) (UniProt P08515 1-218 = GST, limits assumed).
T2 construct: control for the GST part of the fusion protein; also called GST protein; Glutathione-S-transferase
The assay is described as follows: ELISA, coated GST. (In general: In an ELISA, binding on a coated surface is turned into a signal by an enzyme label.)
Method: (§1) Briefly, 96-well polystyrene plates were coated with 1-10 µg/ml of recombinant GST-TMEM106B-truncated protein or GST (Pierce) in PBS either at 370 Cfor 1-4 hours or overnight at 4 °C. Coated plates were then blocked with 5% BSA for 1-hour, washed 3×150 µL in TBST (Tris-buffered saline + 0.1% Tween20), and then the antibodies were added at various dilutions (100-1000x) in PBS. After 1-hour incubation (room temperature, with shaking), the plates were washed 3x150 µL in TBST. […] After a final set of washes (3×150µL in TBST), 100 µL of peroxidase substrate was added for 1 minute; the reaction was then quenched with 2N sulfuric acid (100 µL).

Assay [3] concerns the target T1, human TMEM106B. The assay is described as follows: FACS HEK+huTMEM, 0.1 ug/ml.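 Note: flow cytometry binding of purified mouse IgG antibodies to HEK293 cells transiently expressing TMEM106B, read as median fluorescence intensity with propidium iodide positive dead cells gated out.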
Method: (§2) Purified anti-TMEM106B antibodies were evaluated for their binding affinity to various TMEM106B-expressing cell lines including HEK293 transiently transfected with human/cyno/mouse TMEM106B, as well as HeLa cells and A549 cells. Antibodies tested for this experiment were mouse IgGs purified from hybridoma supernatant. Affinity binding to cells was determined as follows. Briefly, 1x10^5 cells were aliquoted per well in 96-well round bottom plates and incubated with 50 µL of purified anti-TMEM106B antibody at various concentrations (10x dilutions starting at 10 µg/ml) in FACS buffer (PBS + 2% FBS + 1 mM EDTA). […] Sorting was performed on a iQue (Intellicyt), with sort gates drawn to exclude dead (propidium iodide +) cells. Binding data was analyzed using median fluorescent intensity (MFI) and graphed in Prism. Values presented are MFI.
The target in assay [4] is T1, human TMEM106B. The assay is described as follows: FACS A549, 10 ug/ml.
The target in assay [5] is T1, human TMEM106B. The assay is described as follows: FACS HEK+huTMEM, 1.0 ug/ml.
Method: as §2
Assay [6] concerns the target T1, human TMEM106B. The assay is described as follows: FACS HeLa.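 Note: flow cytometry of cells incubated with hybridoma supernatant or purified antibody at 10 µg/ml for 1 h on ice, propidium iodide–positive dead cells gated out.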
The target of assay [7] is T1, human TMEM106B. The assay is described as follows: FACS HEK+huTMEM, 0.01 ug/ml.
In assay [8] the target is T1, human TMEM106B. The assay is described as follows: FACS HEK+huTMEM, 10 ug/ml.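 Note: purified mouse IgG antibodies at 10 µg/ml bound to HEK293 cells transiently expressing human TMEM106B, measured by flow cytometry as median fluorescence intensity of propidium iodide negative live cells.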
Method: as §2
Assay [9] deals with T1, human TMEM106B. The assay is described as follows: FACS A549, 1 ug/ml.
Assay [10] addresses T3, GST-fusion human TMEM106B truncated (human).
T3 construct: also called GST-TMEM106B-truncated protein; GST-TMEM106B (truncated)
The assay is described as follows: ELISA, supernatant 100-1000x.
Method: as §1

For assay [11], the target named is T1, human TMEM106B. The assay is described as follows: FACS A549.
In assay [12] the target is T4, cynomolgus (cyno) TMEM106B (cynomolgus, UniProt Q9NUM4 2-274 (human entry)).
T4 construct: on transiently transfected HEK293 cells
The assay is described as follows: FACS, HEK293 transfectants.

The target of assay [13] is T1, human TMEM106B. The assay is described as follows: FACS, HEK293 transfectants. This is another data set of the same source.
Assay [14] addresses T1, human TMEM106B. The assay is described as follows: FACS U251.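 Note: flow cytometry of cells exposed to antibody (purified at 10 µg/mL, or hybridoma supernatant) for 1 h on ice, with propidium iodide-positive dead cells gated out.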
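Throughout, for fold over negative controls: hybridoma supernatants incubated 30 min on ice with human TMEM106B-expressing HEK293 cells, binding read as anti-mouse-APC median fluorescence on live cells, relative to secondary-antibody-only wells.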
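Throughout, for fold-change over parental HEK293: flow cytometry binding of hybridoma supernatants to HEK293 cells transiently expressing human, cyno or mouse TMEM106B, read as anti-mouse-APC median fluorescence, live cells only, 30 min on ice.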

B1: anti-TMEM106B antibody TM-4 (antibody, V domains shown)
VH: EVQVQQSGPVLVKPGASVKMSCKASGYTFTDYYMNWVKQSHGKNLEWIGVINPYNGGTSYHQKFKGKATLTVDKSSSTAYMELNSLTSEDSAVYYCARAATVVAGFDYWGQGTTLTVSS
VL: QAVVTQESALTTSPGETVTLTCRSSTGAVTTSNYANWVQEKPDHLFTGLIGGTNNRAPGVPARFSGSLIGDKAALTITGAQTEDEAIYFCVLWYSNHLVFGGGTKLTVL
Turning to B1, the “fold over negative controls” value in assay [1] is over 2 fold. Besides, the binding result in [2] and in [10] was “no binding” throughout. The MFI was 304 in assay [3]; 443 in assay [4]; 415 in assay [5]; 323 in [6]; 282 in assay [7]; 846 in [8]. The values for the MFI in assay [9], in [11] and in assay [14] were 373, 916 and 349, respectively. The “fold-change over parental HEK293” value was found to be 2.08 fold in assay [12] and 1.13 fold in [13].

Source of the values: patent US20230303681A1 (published 2023).
